According to the RNAGym collection of RNA variant scans (doi:10.1093/molbev/msab373):

B1: Azoarcus group I ribozyme (parent)
chain: GUGCCUUGCGCCGGGAAACCACGCAAGGGAUGGUGUCAAAUUCGGCGAAACCUAAGCGCCCGCCCGGGCGUAUGGCAACGCCGAGCCAAGCUUCGGCGCCUGCGCCGAUGAAGGUGUAGAGACUAGACGGCACCCACCUAAGGCAAACGCUAUGGUGAAGGCAUAGUCCAGGGAGUGGCGAAAGUCACACAAACCGG

Variants of: B1
Experiment: reverse-splicing fitness (ratio to wild type); higher = more active; in vitro selection; Mg2+ level not given
Outline: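 An in vitro group I ribozyme library with randomized positions was T7-transcribed and gel-purified. In triplicate, 10 pmol RNA in EPPS pH 7.5 was reacted with 50 pmoles of a 30-nt RNA substrate for 1 h at 37 °C across several added MgCl2 levels (1–48 mM), then stopped with EDTA. Products were reverse transcribed from a substrate-complementary primer, PCR-amplified and sequenced (HiSeq 4000). Fitness is a variant's read proportion after selection over that before, normalised to wild type.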

Variant	reverse-splicing fitness
A111U A145U C169U U176C	0.0326
A111U C150G	0.308
A111U C150U	0.89
A111U C150A	0.372
A120C A145G C150U C169G	0.0232
A120C A145G C150U C169A	0.0324
A120C A145G C150U C169U	0.432
A120C A145G C169U U176G	0.015
A120C A145G C169U U176A	0.153
A120C A145G C169U U176C	0.185
A111U C150A U176A	0.207
A111U C150A U176G	0.0846
A111U C150A U176C	0.251
A111U A145U C150G C169A U176C	0.0101
A111U A145U C150G C169A U176G	0.00591
A111U A145U C150G C169A U176A	0.0103
A111U C150U C169G U176A	0.0177
A111U C150U C169G U176C	0.0215
A111U C150U C169G U176G	0.00719
A120C A145C C150U C169G U176C	0.00823
A120C A145C C150U C169G U176G	0.00381
A120C A145C C150U C169G U176A	0.0156
A111U A145U C150U C169G U176G	0.00643
A111U A145U C150U C169G U176C	0.0192

Variant	reverse-splicing fitness
A111U A145U C150U C169G U176A	0.016
A120C C150A C169A	0.0141
A120C C150A C169G	0.00864
A120C C150A C169U	0.098
A111U A145U C150G C169G U176C	0.00535
A111U A145U C150G C169G U176G	0.00534
A111U A145U C150G C169G U176A	0.00711
A120C A145C C150G C169G U176C	0.00582
A120C A145C C150G C169G U176A	0.00848
A120C A145C C150G C169G U176G	0.00352
A120C A145U C150U U176C	0.562
A120C A145U C150U U176G	0.2
A120C A145U C150U U176A	0.652
A120C A145U C150G	0.262
A120C A145U C150A	0.215
A120C A145U C150U	0.744
A111U C150A C169G U176A	0.0165
A111U C150A C169G U176G	0.00571
A111U C150A C169G U176C	0.0236
A120C A145C C150A C169A U176G	0.00372
A120C A145C C150A C169A U176A	0.00897
A120C A145C C150A C169A U176C	0.00472
A111U A145U C150U C169A U176G	0.00694
A111U A145U C150U C169A U176C	0.0104

Variant	reverse-splicing fitness
A111U A145U C150U C169A U176A	0.0144
A120C A145G C169A U176A	0.0215
A120C A145G C169A U176G	0.00471
A120C A145G C169A U176C	0.024
A120C A145G C150U	0.781
A120C A145G C150A	0.32
A120C A145G C150G	0.234
A120C A145C C150U C169U U176A	0.0792
A120C A145C C150U C169U U176G	0.00874
A120C A145C C150U C169U U176C	0.0863
A111U A145U C169G U176G	0.00562
A111U A145U C169G U176C	0.0214
A111U A145U C169G U176A	0.016
A120C A145C C150U U176C	0.317
A120C A145C C150U U176A	0.398
A120C A145C C150U U176G	0.137
A111U C150U C169A U176C	0.0138
A111U C150U C169A U176G	0.00669
A111U C150U C169A U176A	0.015
A120C A145G C150A C169G U176A	0.017
A120C A145G C150A C169G U176C	0.0234
A120C A145G C150A C169G U176G	0.00453
A111U A145U C150U C169U U176A	0.022
A111U A145U C150U C169U U176C	0.0268

Variant	reverse-splicing fitness
A111U A145U C150U C169U U176G	0.00684
A120C A145G C150U U176A	0.626
A120C A145G C150U U176G	0.179
A120C A145G C150U U176C	0.566
A111U C169A U176A	0.0172
A111U C169A U176C	0.0214
A111U C169A U176G	0.00592
A120C A145G C150G U176G	0.019
A120C A145G C150G U176C	0.146
A120C A145G C150G U176A	0.0905
A120C A145U C150U C169U U176C	0.16
A120C A145U C150U C169U U176A	0.131
A120C A145U C150U C169U U176G	0.0113
A111U C150A C169G	0.0124
A111U C150A C169A	0.0111
A111U C150A C169U	0.0167
A120C A145U C150A C169G U176G	0.00376
A120C A145U C150A C169G U176A	0.00974
A120C A145U C150A C169G U176C	0.0105
A120C A145U C150U C169G U176C	0.0117
A120C A145U C150U C169G U176A	0.0111
A120C A145U C150U C169G U176G	0.00463
A120C A145U C169U U176C	0.187
A120C A145U C169U U176A	0.143

Variant	reverse-splicing fitness
A120C A145U C169U U176G	0.0184
A120C A145G C150A C169U	0.134
A120C A145G C150A C169G	0.0107
A120C A145G C150A C169A	0.0153
A120C A145C C150U C169U	0.194
A120C A145C C150U C169G	0.0109
A120C A145C C150U C169A	0.0127
A111U C150U C169G	0.0372
A111U C150U C169A	0.02
A111U C150U C169U	0.0631
A120C A145U C150A C169G	0.00666
A120C A145U C150A C169U	0.0832
A120C A145U C150A C169A	0.00801
A120C A145G C169G	0.0256
A120C A145G C169U	0.47
A120C A145G C169A	0.0366
A111U A145U C150G U176C	0.193
A111U A145U C150G U176G	0.025
A111U A145U C150G U176A	0.138
A111U C169G U176A	0.02
A111U C169G U176C	0.0333
A111U C169G U176G	0.00596
A111U A145U C150A C169U U176C	0.0162
A111U A145U C150A C169U U176A	0.0151

Variant	reverse-splicing fitness
A111U A145U C150A C169U U176G	0.00626
A120C A145C C169U U176G	0.0155
A120C A145C C169U U176A	0.143
A120C A145C C169U U176C	0.177
A120C A145C C150A U176G	0.0481
A120C A145C C150A U176A	0.112
A120C A145C C150A U176C	0.102
A111U A145U U176G	0.364
A111U A145U U176A	0.747
A111U A145U U176C	0.767
A120C A145U C169G U176G	0.0038
A120C A145U C169G U176A	0.00826
A120C A145U C169G U176C	0.0112
A111U A145U C150A U176C	0.228
A111U A145U C150A U176A	0.192
A111U A145U C150A U176G	0.0853
A120C A145C U176C	0.574
A120C A145C U176A	0.693
A120C A145C U176G	0.266
A120C A145C C169G	0.0239
A120C A145C C169U	0.431
A120C A145C C169A	0.0312
A120C A145U C150G C169A U176A	0.0113
A120C A145U C150G C169A U176C	0.00821

Variant	reverse-splicing fitness
A120C A145U C150G C169A U176G	0.0044
A120C A145U C150G U176C	0.156
A120C A145U C150G U176G	0.0206
A120C A145U C150G U176A	0.137
A120C C150A	0.241
A120C A145G C150A C169A U176C	0.0217
A120C A145G C150A C169A U176G	0.00483
A120C A145G C150A C169A U176A	0.0168
A120C A145G C150G C169G U176C	0.0135
A120C A145G C150G C169G U176G	0.00533
A120C A145G C150G C169G U176A	0.00996
A120C C150A C169G U176G	0.00418
A120C C150A C169G U176A	0.0161
A120C C150A C169G U176C	0.0156
A120C A145C C150G C169A U176A	0.00776
A120C A145C C150G C169A U176C	0.00596
A120C A145C C150G C169A U176G	0.00424
A111U C150A C169U U176C	0.0188
A111U C150A C169U U176A	0.0201
A111U C150A C169U U176G	0.00721
A120C A145G C169G U176C	0.022
A120C A145G C169G U176A	0.0155
A120C A145G C169G U176G	0.00382
